Experimental data published in paper doi:10.1101/633420.

Biological target: PRR (UniProt P10636)
Experiment: fluorescence correlation spectroscopy

Chain of UniProt P10636 (P10636 466-561): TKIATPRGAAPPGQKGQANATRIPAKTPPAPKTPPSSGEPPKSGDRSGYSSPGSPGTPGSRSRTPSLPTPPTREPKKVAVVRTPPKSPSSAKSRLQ
Chain of tubulin (Q6B856 whole entry, looked up): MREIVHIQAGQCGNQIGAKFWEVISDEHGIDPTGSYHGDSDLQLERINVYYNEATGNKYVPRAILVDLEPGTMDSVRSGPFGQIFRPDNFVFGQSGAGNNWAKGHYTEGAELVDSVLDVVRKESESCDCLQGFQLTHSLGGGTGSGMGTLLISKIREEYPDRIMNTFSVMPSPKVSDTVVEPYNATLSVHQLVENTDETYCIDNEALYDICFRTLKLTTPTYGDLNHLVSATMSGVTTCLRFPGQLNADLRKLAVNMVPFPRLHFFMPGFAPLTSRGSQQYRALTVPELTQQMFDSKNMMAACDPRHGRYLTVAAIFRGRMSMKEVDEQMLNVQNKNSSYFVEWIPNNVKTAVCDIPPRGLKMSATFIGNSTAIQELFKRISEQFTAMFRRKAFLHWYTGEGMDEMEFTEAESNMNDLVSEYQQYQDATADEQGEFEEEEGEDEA

Kd: 900 nM
stoichiometry N (tubulin dimers per PRR): 2
Substance: tubulin (from UniProt Q6B856 1-445) (complex)
